This passage reports binding result and Kd results from patent publication US20170029530A1 (AbbVie / Abbott, published 2017).

For orientation: Kd means the constant that tells how readily two partners part at equilibrium.

“And” between values parts separate entries of the source, which are not always exact repeats. Identical values can stand only once.

The target in experiment [1] is T1, hDPEP2 ECD with histidine tag (human, UniProt Q9H4A9 33-463).
T1 construct: also called hDPEP2-His; not shown: histidine tag
T1 sequence (Q9H4A9 33-463): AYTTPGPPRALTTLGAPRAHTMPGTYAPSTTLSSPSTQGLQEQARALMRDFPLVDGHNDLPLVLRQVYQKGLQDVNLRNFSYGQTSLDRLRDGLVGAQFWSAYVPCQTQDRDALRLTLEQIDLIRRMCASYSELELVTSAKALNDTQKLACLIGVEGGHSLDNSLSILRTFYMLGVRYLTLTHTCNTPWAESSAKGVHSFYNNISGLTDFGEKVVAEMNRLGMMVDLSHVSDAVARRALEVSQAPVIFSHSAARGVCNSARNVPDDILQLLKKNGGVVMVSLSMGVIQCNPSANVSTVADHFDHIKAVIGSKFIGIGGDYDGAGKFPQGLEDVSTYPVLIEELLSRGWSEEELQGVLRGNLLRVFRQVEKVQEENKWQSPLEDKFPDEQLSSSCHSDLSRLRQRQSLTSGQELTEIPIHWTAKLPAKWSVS
The experiment is described as follows: ELISA, coated antigen. The method, then: (§1) The anti-DPEP3 antibodies were screened by ELISA for cross-reactivity with mouse, rat and cynomolgus DPEP3 and for cross reactivity to hDPEP2, the closest DPEP3 family member. ELISA was conducted as follows. Plates were coated with purified mouse, rat or cynomolgus DPEP3-His or hDPEP2-His at 0.3 μg/mL in 0.2 M carbonate-bicarbonate buffer, pH 9.4 overnight at 4° C. The protein solution was removed and the wells were blocked with 1% (w/v) BSA in PBS (PBSA), 100 μL/well for 1 hour at 37° C. Anti-DPEP3 antibody or a mouse isotype control antibody was then added at 1 μg/mL in 50 μL PBSA for 1 hour at room temperature. After washing with water, 50 μL/well HRP-labeled goat anti-mouse IgG antibody diluted 1:10,000 in PBSA was added for 30 min at room temperature. The plates were washed and developed by the addition of 40 μL/well of the TMB substrate solution (Thermo Scientific) at room temperature. An equal volume of 0.2 M H₂SO₄ was added to stop substrate development. The samples were then analyzed by spectrophotometer at OD 450. […] The cross reactivity results for exemplary DPEP3-specific antibodies can be seen in FIG. 4.
For orientation: In an ELISA, binding on a coated surface is turned into a signal by an enzyme label.

Experiment [2] addresses T2, rat DPEP3 ECD with histidine tag (rat, UniProt Q5U2X4 36-459, limits assumed).
T2 construct: also called rDPEP3-His; ratDPEP3-His; not shown: histidine tag
T2 sequence: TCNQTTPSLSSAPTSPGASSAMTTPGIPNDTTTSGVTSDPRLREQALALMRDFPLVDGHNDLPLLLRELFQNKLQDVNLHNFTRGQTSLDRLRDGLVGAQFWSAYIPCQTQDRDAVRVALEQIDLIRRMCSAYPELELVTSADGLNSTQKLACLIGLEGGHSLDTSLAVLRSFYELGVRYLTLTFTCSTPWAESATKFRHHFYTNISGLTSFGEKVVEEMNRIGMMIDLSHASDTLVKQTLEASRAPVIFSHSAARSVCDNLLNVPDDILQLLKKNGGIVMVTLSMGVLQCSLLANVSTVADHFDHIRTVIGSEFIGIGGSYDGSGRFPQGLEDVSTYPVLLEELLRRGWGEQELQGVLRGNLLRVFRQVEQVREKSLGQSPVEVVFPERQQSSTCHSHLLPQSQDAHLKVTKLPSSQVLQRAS
The experiment is described as follows: ELISA, coated antigen. On the procedure:
as §1

A further experiment concerns the target T3, mDPEP3 (limits assumed).
T3 construct: also called mouse DPEP3-His; mouse DPEP3 ECD with histidine tag
T3 single chain: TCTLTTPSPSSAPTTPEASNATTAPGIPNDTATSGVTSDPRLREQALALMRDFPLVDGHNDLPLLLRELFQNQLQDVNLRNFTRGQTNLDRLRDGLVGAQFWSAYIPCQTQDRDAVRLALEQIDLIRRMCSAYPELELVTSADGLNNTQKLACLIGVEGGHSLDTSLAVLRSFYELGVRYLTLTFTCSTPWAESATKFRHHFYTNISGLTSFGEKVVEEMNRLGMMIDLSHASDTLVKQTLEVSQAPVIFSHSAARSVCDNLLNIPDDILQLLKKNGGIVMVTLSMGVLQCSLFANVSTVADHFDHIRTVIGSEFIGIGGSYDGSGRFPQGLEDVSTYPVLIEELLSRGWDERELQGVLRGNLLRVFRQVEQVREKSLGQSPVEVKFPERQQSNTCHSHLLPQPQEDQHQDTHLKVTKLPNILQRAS
The experiment is described as follows: ELISA, coated antigen. On the procedure:
as §1

A further experiment addresses T4, hDPEP3-ECD-His (human, UniProt Q9H4B8 36-463).
T4 construct: also called hDPEP3-His; monomeric hDPEP3-His antigen; not shown: histidine tag
T4 sequence: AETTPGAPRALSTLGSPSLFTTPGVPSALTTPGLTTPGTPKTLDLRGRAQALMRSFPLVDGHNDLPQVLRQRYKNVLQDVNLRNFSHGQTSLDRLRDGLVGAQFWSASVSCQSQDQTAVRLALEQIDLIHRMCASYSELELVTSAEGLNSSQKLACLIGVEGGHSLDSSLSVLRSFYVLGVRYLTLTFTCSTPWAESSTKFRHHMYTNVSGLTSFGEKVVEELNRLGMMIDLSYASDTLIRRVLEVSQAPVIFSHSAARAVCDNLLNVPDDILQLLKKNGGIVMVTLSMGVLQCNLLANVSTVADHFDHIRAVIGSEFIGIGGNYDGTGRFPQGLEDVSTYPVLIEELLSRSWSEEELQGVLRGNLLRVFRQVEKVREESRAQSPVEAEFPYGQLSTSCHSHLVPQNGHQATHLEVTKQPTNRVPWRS
Put plainly: BLI ForteBio RED, 200 nM hDPEP3-His, estimated grade. On the procedure:
The affinity of the antibodies for hDPEP3-His was qualitatively determined from kinetics curves generated with a ForteBio RED as follows. Anti-DPEP3 antibodies were immobilized onto anti-mouse Fc capture biosensors with a contact time of 3 mins. and a flow rate of 1000 rpm. The captured antibody loading from baseline was constant at 0.3-1 units. Following antibody capture and 30 second baseline, the biosensors were dipped into a 200 nM solution of hDPEP3-His for a 4 min. association phase followed by a 3 min. dissociation phase at a shaking rate of 1000 rpm. The biosensors were regenerated by dipping into 10 mM glycine, pH 1.7 following each cycle. The data was processed by subtracting a control mouse IgG surface response from the specific antibody response and data was truncated to the association and dissociation phase. The association and dissociation curves were used to qualitatively estimate the affinities of selected antibodies. […] A designation of “ND” means that the estimated KD was not determined.

B1: SC34.67 (antibody, mouse IgG2a, V domains shown)
VH: QVQLQQSGAELARPGASVRLSCKASGYTFTSYGINWVKQRTGQGLEWIGEIYPGSGDSYYNKTFKGKAILTTDKSSSTAYMQLSSLTPEDSAVYFCARVHDYGSWFPYWGPGALVTVSA
VL: DMVMSQSPSSLAVSVGEKVALSCKSSQSLLHSRDQKNYLAWYQQKPGQSPKLLIHWASTRESGVPARFTGSGSGTDFTLTISSVKAEDLAVYYCQQSYRYPLTFGAGTKLELK
In the case of B1, the binding result (in experiment [1]; in experiment [2]; in the experiment with mDPEP3) was “no binding (tested: 1 ug/mL)” throughout. In the experiment with hDPEP3-ECD-His, the Kd was below 5 nM.

B2: SC34.4 (antibody, mouse IgG2b, V domains shown)
VH: QVQLQQSGAELARPGASVKLSCKASGYTFTSYGINWVKQRTGQGLEWIGEIYPGSGNIYYNEKFKGKAILTTDKSSNTAYMQLSSLTSEDSAVYFCARVHDYGSWFPYWAQGTLVTVSA
VL: DIVMSQSPSSLTVSVGEKVTMSCKSSQSLLYSRNQKNYLAWYQQKPGQSPKLLIYWASTRDSGVPDRFTGTGSGTDFSLTISSVKTEDLAVYYCHQHYRYPLTFGAGTKLELK
notes: also called SC34.04
As to B2, the binding result (in experiment [1]; with mDPEP3) was “no binding (tested: 1 ug/mL)” each time. Moreover, the Kd with hDPEP3-ECD-His is ≥ 5 nM and ≤ 10 nM.

B3: SC34.63 (antibody, mouse IgG1)
light chain: DIVMSQSPSSLAVSVGEKVTMSCKSSQSLLYSKYQKNYLAWYQQKPGQSPKLLIYWASTRESGVPDRFTGSESGTDFTLTISSVKAEDLAVYYCQQYYRYPLTVGAGTKLELK
heavy chain: QVQLQQSGVELARPGASVKLSCKASGYTFTSYGIDWVKQRTGQGLEWIGETYPGRGDTYYNENFKGKATLTTDKSSSTAFLQLSSLTSEDSAVYFCARVHDYGSWFPYWGQGTLVTVSA
On to B3, for which the binding result (in experiment [1]; in experiment [2]; in the experiment with mDPEP3) was “no binding (tested: 1 ug/mL)” in each case. For the same molecule, the Kd with hDPEP3-ECD-His was below 5 nM.

B4: SC34.91 (antibody, mouse IgG1, V domains shown)
VH: QVQLQQSGAELARPGASVKLSCKASGYTFRSYAISWVKQRTGQGLEWIGEIYPGSGDTYYNENFKGKATLTTDKSSSTAYMQLSSLTSEDSAVYFCARVHDNGSWFPYWGQGTLVTVSA
VL: DIVMSQSPSSLAVSVGEKVTMSCKSSQSLLYSTYQKNYLAWFQQKPGQSPKLLIYWASTRESGVPDRFTGSGSGTDFTLTISSVKAEDLAVYYCQQYYRYPLTFGAGTKLELK
Take B4: the binding result (in experiment [1]; in experiment [2]; with mDPEP3) was “no binding (tested: 1 ug/mL)” throughout. The Kd with hDPEP3-ECD-His was below 5 nM.

B5: SC34.76 (antibody, mouse IgG1, V domains shown)
VH: QVQLQQSGAELARPGASVKLSCKTSEYTFTSYAINWVKQRTGQGLEWIGEVYPGSGNTYYNEKFKGKAILTTDKSSSTGYMQLSNLTSEDSAVYFCARVHDYGSWFPYWGQGTLVTVSA
VL: DIVMSQSPSSLAVSVGERVTMNCKSSQSLFYSRYQKNYLAWYQQKPGQSPKLLIYWASTRESGVPDRFTGSGSGTDFTLTISSVKAEDLAVYYCQQYYRYPLTFGAGTKLELK
In the case of B5, the binding result (in experiment [1]; in experiment [2]; in the experiment with mDPEP3) was “no binding (tested: 1 ug/mL)” each time. The Kd in the experiment with hDPEP3-ECD-His is below 5 nM.

B6: SC34.95 (antibody, mouse IgG1)
light chain: DIVLSQSPSSLAVSVGEKVTMSCKSSQSLLNSRDRKNYLAWCQQKPGQSPKVMIYWASTRESGVPDRFTGSGSGTDFTLTISSVKAEDLAVYYCQQYYSYPLTVGAGTKLELK
heavy chain: QVQVKQSGAELARPGASVKLSCKASGYTFTSYAINWLKQRTGQGLEWIGEIYPGSGNTYYNESFKNKATLTTDKSSTTAYMQLNSLTSEDSAVYFCARVHDYGSWFPYWGQGTLVTVSA
Regarding B6, the binding result (in experiment [1]; with mDPEP3) was “no binding (tested: 1 ug/mL)” in each case. Also, the Kd in the experiment with hDPEP3-ECD-His is below 5 nM.

B7: SC34.7 (antibody, mouse IgG1, V domains shown)
VH: QVQVQQSGAELARPGASVKLSCKASGYTFTSYGINWVKQRTGQGLEWIGEIYPGSGNAYYNEKFKVKAKLTTDNSSRTAYMQLINLTSEDSAVYFCARVHDYGSWFPYWGQGTLVTVSA
VL: DIVMSQSPSSLAVSVGEKVTMSCKSSQSLLYSRYQKNYLAWYQQKPGQSPKLLIYWASTRESGVPDRFTGSGSGTDFTLTISSVKAEDLAVYYCHQYYRYPLTFGAGTKLELK
notes: also called SC34.07
Take B7: the binding result (in experiment [1]; in experiment [2]; in the experiment with mDPEP3) was “no binding (tested: 1 ug/mL)” each time. Besides, the Kd in the experiment with hDPEP3-ECD-His is ≥ 5 nM and ≤ 10 nM.

B8: SC34.20 (antibody, mouse IgG1, V domains shown)
VH: QVQLQQSGSELARPGASVKLSCKASGYTFRSYAISWVRQRTGQGLEWIGEIYPESGNTDYNAQFKGKATLTTDKSSSTAYMQLSSLTSEASAVYFCARVHDYGSWFPYWGQGTLVTVSA
VL: DIVMSQSPSSLTVSVGEKVTMSCKSSQSLLYSTYQKNYLAWFQQKPGQSPKLLIYWASTRESGVPDRFTGSGSGTDFTLTISSVKAEDLAVYYCQQYYRYPLTFGAGTKLELK
As to B8, the binding result (in experiment [1]; in experiment [2]; with mDPEP3) was “no binding (tested: 1 ug/mL)” each time. The Kd with hDPEP3-ECD-His is ≥ 5 nM and ≤ 10 nM.

B9: SC34.83 (antibody, mouse IgG2a, V domains shown)
VH: QVQLQQSGAELVKPGASVKISCKASGYAFSHSWMNWVKQRPGKGLEWIGRIYPGDGDINYNGKFKGKATLTADKSSSTAYMQLSSLTSEDSAVYFCARRGPSYNNYCFDYWGQGTTLTVSS
VL: QIVLIQSPAIMSASPGENVTMTCSASSSVSYMHWYQQKSGTSPKRWIYDTSKLASGVPARFSGSGSGTSYSLTISSMEAEDAATYYCQQWNSYPPTFGAGTKLELK
B9: the binding result in experiment [1] is on record as “no binding (tested: 1 ug/mL)”. Further, the Kd with hDPEP3-ECD-His is above 10 nM.
